Results on one molecule are retold here after paper doi:10.1101/2024.12.22.629684 (bioRxiv, 2024).

The target in this experiment is T1, Yku80 (S. cerevisiae, UniProt Q04437 1-629).
T1 sequence (looked up): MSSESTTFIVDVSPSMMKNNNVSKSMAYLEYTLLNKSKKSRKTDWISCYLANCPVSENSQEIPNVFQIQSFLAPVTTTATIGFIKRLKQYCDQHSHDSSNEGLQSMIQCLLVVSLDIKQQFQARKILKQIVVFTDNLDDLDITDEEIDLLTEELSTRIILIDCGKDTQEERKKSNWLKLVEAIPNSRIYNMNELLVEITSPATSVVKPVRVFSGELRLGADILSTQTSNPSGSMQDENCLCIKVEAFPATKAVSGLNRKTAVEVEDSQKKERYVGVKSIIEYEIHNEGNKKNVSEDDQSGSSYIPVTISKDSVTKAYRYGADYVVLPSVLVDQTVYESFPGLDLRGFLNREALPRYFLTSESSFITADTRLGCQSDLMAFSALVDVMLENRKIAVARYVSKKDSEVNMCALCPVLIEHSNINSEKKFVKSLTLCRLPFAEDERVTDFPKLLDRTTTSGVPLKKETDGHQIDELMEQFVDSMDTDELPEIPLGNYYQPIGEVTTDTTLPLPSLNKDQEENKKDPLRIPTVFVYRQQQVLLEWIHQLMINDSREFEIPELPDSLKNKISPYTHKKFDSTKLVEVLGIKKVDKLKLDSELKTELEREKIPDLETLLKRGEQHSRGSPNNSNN
The experiment is described as follows: cryo-EM structure.

B1: Yku70 (natural protein, S. cerevisiae, UniProt P32807 1-602, looked up)
chain: MRSVTNAFGNSGELNDQVDETGYRKFDIHEGILFCIELSETMFKESSDLEYKSPLLEILESLDELMSQLVITRPGTAIGCYFYYCNREDAKEGIYELFPLRDINATFMKKLNDLLEDLSSGRISLYDYFMFQQTGSEKQVRLSVLFTFMLDTFLEEIPGQKQLSNKRVFLFTDIDKPQEAQDIDERARLRRLTIDLFDNKVNFATFFIGYADKPFDNEFYSDILQLGSHTNENTGLDSEFDGPSTKPIDAKYIKSRILRKKEVKRIMFQCPLILDEKTNFIVGVKGYTMYTHEKAGVRYKLVYEHEDIRQEAYSKRKFLNPITGEDVTGKTVKVYPYGDLDINLSDSQDQIVMEAYTQKDAFLKIIGFRSSSKSIHYFNNIDKSSFIVPDEAKYEGSIRTLASLLKILRKKDKIAILWGKLKSNSHPSLYTLSPSSVKDYNEGFYLYRVPFLDEIRKFPSLLSYDDGSEHKLDYDNMKKVTQSIMGYFNLRDGYNPSDFKNPLLQKHYKVLHDYLLQIETTFDENETPNTKKDRMMREDDSLRKLYYIRNKILESEKSEDPIIQRLNKYVKIWNMFYKKFNDDNISIKEEKKPFDKKPKFNI
Consider B1, for which the binding result was “binds”.
